Measured values published in PMC10528418 (Molecular cell, 2023).

T1: TFIIIC subunit τ138 (S. cerevisiae, UniProt P34111 1-1160)
T1 sequence (looked up): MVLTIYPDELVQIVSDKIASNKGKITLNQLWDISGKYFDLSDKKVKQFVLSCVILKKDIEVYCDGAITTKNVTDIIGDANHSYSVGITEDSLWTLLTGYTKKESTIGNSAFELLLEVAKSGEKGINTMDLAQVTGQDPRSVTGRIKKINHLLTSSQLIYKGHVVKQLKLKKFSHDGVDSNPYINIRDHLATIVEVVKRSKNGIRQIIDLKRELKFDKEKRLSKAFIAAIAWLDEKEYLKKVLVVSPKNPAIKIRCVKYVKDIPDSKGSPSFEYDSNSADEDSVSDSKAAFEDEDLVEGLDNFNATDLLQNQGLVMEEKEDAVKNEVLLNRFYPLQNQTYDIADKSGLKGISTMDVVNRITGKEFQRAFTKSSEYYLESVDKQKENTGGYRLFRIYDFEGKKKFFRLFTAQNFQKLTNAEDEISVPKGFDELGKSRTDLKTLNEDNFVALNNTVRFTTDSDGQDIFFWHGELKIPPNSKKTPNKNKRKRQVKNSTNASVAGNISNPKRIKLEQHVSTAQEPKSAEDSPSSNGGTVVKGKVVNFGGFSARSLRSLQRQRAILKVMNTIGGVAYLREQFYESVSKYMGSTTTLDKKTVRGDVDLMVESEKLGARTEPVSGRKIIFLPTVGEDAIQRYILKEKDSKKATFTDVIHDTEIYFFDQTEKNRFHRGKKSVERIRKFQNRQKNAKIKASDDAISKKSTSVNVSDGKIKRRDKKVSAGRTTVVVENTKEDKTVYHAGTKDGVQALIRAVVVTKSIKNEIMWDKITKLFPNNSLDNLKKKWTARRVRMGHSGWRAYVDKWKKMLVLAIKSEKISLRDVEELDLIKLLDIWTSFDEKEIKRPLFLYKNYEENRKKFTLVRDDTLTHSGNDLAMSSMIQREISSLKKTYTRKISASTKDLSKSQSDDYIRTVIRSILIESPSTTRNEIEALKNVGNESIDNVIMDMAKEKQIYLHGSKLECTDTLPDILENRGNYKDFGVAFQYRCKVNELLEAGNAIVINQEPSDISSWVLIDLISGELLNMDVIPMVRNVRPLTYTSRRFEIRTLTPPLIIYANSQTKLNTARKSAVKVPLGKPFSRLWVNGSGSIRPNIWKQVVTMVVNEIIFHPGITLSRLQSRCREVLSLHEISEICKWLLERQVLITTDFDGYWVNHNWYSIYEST

T2: TFIIIC subunit τ95 (S. cerevisiae, UniProt P32367 1-649)
T2 sequence (looked up): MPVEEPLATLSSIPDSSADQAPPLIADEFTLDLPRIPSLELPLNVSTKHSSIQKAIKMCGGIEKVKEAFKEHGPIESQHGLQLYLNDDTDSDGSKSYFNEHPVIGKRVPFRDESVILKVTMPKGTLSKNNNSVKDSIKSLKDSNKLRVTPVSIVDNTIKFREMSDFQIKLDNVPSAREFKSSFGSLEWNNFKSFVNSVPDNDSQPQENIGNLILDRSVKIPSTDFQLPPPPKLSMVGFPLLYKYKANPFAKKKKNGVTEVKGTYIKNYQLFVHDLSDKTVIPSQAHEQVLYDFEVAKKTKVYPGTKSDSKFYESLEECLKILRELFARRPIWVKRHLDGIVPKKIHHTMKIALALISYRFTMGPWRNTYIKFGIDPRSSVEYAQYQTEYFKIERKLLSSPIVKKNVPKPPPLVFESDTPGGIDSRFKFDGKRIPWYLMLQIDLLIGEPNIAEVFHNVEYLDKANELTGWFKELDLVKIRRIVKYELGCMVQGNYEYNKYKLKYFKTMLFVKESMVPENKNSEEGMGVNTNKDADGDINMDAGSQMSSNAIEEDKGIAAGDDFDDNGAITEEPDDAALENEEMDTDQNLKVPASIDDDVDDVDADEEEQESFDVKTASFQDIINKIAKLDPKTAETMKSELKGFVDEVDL

T3: TFIIIC subunit τ91 (S. cerevisiae, UniProt Q06339 1-672)
T3 sequence (looked up): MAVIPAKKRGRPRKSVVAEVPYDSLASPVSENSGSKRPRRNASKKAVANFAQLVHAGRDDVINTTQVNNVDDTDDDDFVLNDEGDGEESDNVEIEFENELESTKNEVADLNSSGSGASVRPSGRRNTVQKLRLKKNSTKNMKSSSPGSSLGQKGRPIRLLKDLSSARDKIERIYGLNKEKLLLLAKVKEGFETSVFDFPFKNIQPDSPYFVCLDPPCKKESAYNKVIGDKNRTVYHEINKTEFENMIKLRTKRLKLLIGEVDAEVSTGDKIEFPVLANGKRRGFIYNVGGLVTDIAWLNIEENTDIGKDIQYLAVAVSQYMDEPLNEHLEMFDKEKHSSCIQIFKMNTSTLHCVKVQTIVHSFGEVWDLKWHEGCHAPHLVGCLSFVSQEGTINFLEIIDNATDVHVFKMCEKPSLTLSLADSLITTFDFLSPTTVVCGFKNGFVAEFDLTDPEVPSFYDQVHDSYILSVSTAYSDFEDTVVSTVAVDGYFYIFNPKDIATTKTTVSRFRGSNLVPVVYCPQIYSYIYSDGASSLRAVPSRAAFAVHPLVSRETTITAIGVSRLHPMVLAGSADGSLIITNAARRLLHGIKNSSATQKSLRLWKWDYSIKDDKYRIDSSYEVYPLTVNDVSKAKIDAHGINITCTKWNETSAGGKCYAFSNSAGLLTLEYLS

B1: TFIIIC subunit τ55 (natural protein, S. cerevisiae, UniProt Q12415 1-435, looked up)
chain: MVVNTIYIARHGYRSNWLPEGPYPDPLTGIDSDVPLAEHGVQQAKELAHYLLSLDNQPEAAFASPFYRCLETVQPIAKLLEIPVYLERGIGEWYRPDRKPVIPVPAGYEILSKFFPGVISQEWDSTLTPNEKGETEQEMYMRFKKFWPLFIERVEKEYPNVECILLVTHAASKIALGMSLLGYDNPRMSLNENGDKIRSGSCSLDKYEILKKSYDTIDETDDQTSFTYIPFSDRKWVLTMNGNTEFLSSGEEMNWNFDCVAEAGSDADIKKRQMTKKTSSPIPEADDQTEVETVYISVDIPSGNYKERTEIAKSAILQYSGLETDAPLFRIGNRLYEGSWERLVGTELAFPNAAHVHKKTAGLLSPTEENETTNAGQSKGSSTANDPNIQIQEEDVGLPDSTNTSRDHTGDKEEVQSEKIYRIKERIVLSNVRPM
B2: TFIIIC subunit τ60 (natural protein, S. cerevisiae)
chain: MKLLKDLLVDRKEFEDWKNNLTWARDGTLYLTTFPDISIGQPKYAKDINCNSKNLFHVKEFPLEFENKLDFELAQQNGLLNSQPVCYPRVCKPSPIDDWMAVLSNNGNVSVFKDNKMLTNLDSKGNLSSRTYHCFEWNPIESSIVVGNEDGELQFFSIRKNSENTPEFYFESSIRLSDAGSKDWVTHIVWYEDVLVAALSNNSVFSMTVSASSHQPVSRMIQNASRRKITDLKIVDYKVVLTCPGYVHKIDLKNYSISSLKTGSLENFHIIPLNHEKESTILLMSNKTSYKVLLEDELHVTADNIIAPYLEKKFKKWSTIWNEFNNYETTLVIHGISLSPDGYSIAIVYDMERVAFKYKIASEQSFNIMFAPLYHTWTISERAVGLAWYQTYQIYNQSLPKLPENFSMNKKLLNGNYPISLDFQSYLNALMKSEEMRIIMFLNMTIDKPSILSFLEALYEYAINKKSELTNSFDLACVLSIAAILKREAPIYNGTLLMKNSFLEETFNLESFTADPETVTSTTNNTWKRCGVTLLPILTTHVKICPVSKQRVIDIKRDDLNDYGWFTRGLLERFNEISVYCGTTLEVM

Key:
Experiment in all cases: cryo-EM structure
TFIIIC subunit τ138 = molecular target: T1, TFIIIC subunit τ138
TFIIIC subunit τ95 = molecular target: T2, TFIIIC subunit τ95
TFIIIC subunit τ91 = molecular target: T3, TFIIIC subunit τ91

| Binder | binding result (TFIIIC subunit τ138) | binding result (TFIIIC subunit τ95) | binding result (TFIIIC subunit τ91) |
| --- | --- | --- | --- |
| B1 | binds | binds | – |
| B2 | binds | – | binds |
